± gives the standard deviation.
Assay: protein stability index of a GFP-peptide fusion (GPS, HEK-293T) (PSI 1-6); higher = more stable
Details: c terminus: a fixed tail appended
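Also: 24-mer peptide tiles fused after GFP, lentivirally expressed, FACS-sorted into six equal bins by GFP/DsRed ratio, decoded by Illumina sequencing, PSI is the read-weighted mean bin number.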

Sequence VDEYFRQPVVDTFDIRILMAKSVK [CARM1] has a protein stability index (treatment: DMSO) of 2.47 ± 0.46 and a protein stability index (treatment: MLN4924 1 uM, 8 h) of 2.64 ± 0.63.
VDITPYLDQLDESLRDKVLQLQKG [INTS3] gave a protein stability index (treatment: DMSO) of 3.79 ± 0.071 and a protein stability index (treatment: MLN4924 1 uM, 8 h) of 4.06 ± 0.1.
For VDREKGLSAEPGWQAKREEEEEEE [CHGA], the protein stability index (treatment: DMSO) was 5.36 ± 0.48 and the protein stability index (treatment: MLN4924 1 uM, 8 h) was 5.7 ± 0.18.
For VDRNTRPGPQDPEESASRQRFGEA [ELOA2], the protein stability index (treatment: DMSO) was 4.92 ± 0.25 and the protein stability index (treatment: MLN4924 1 uM, 8 h) was 5.14 ± 0.14.
Sequence VEADINGLRRVLDELTLARTDLEM [KRT15] has a protein stability index (treatment: DMSO) of 3.29 ± 0.27 and a protein stability index (treatment: MLN4924 1 uM, 8 h) of 3.33 ± 0.39.
VEATVKPELTAALRDIRAQYESIA [PRPH] showed a protein stability index (treatment: DMSO) of 3.48 ± 0.16 and a protein stability index (treatment: MLN4924 1 uM, 8 h) of 3.4 ± 0.22.
Work on VESVFFGGGTPSLASPHTVAAVLE [RSAD1] yielded a protein stability index (treatment: DMSO) of 2.97 ± 0.18 and a protein stability index (treatment: MLN4924 1 uM, 8 h) of 3.02 ± 0.47.
In the case of VFKCVKRLDGCIYAIKRSKKPLAG [WEE1], the protein stability index (treatment: DMSO) is reported as 2.23 ± 0.27 and the protein stability index (treatment: MLN4924 1 uM, 8 h) is reported as 2.28 ± 0.15.
Work on VGGFDGTTYLKTIEVFDPDANTWR [KLHL20] yielded a protein stability index (treatment: DMSO) of 2.91 ± 0.12 and a protein stability index (treatment: MLN4924 1 uM, 8 h) of 2.92 ± 0.32.
Work on VGYQSQNISCFFRLVDRDSVWGYD [MYORG] yielded a protein stability index (treatment: DMSO) of 2.34 ± 0.85 and a protein stability index (treatment: MLN4924 1 uM, 8 h) of 2.34 ± 0.17.
VHRRGEYNVYSTFQSHEPEFDYLK [PPP2R2B] showed a protein stability index (treatment: DMSO) of 2.97 ± 0.11 and a protein stability index (treatment: MLN4924 1 uM, 8 h) of 2.88 ± 0.17.
VHTKEQILELLVLEQFLAILPKEL [ZNF396] showed a protein stability index (treatment: DMSO) of 3.22 ± 0.74 and a protein stability index (treatment: MLN4924 1 uM, 8 h) of 2.43 ± 0.63.
Sequence VIAYDHSRVLLSAIEGIPGSDYVN [PTPRD] has a protein stability index (treatment: DMSO) of 1.89 ± 0.5 and a protein stability index (treatment: MLN4924 1 uM, 8 h) of 1.79 ± 0.28.
Work on VILFSSAVYFAEAEEAESHFSSIP [KCNA1] yielded a protein stability index (treatment: DMSO) of 2.37 ± 0.5 and a protein stability index (treatment: MLN4924 1 uM, 8 h) of 2.35 ± 0.29.
For VIPECAHGGLYKPVQCHPSTGYCW [SMOC2], the protein stability index (treatment: DMSO) was 2.38 ± 0.56 and the protein stability index (treatment: MLN4924 1 uM, 8 h) was 2.77 ± 0.9.
Work on VISCTIFIVGMVGNATLLRIIYQN [EDNRA] yielded a protein stability index (treatment: DMSO) of 3.11 ± 0.14 and a protein stability index (treatment: MLN4924 1 uM, 8 h) of 2.29 ± 0.12.
For VIVKEGGLKLIQIQDNGTGIRKED [MLH1], the protein stability index (treatment: DMSO) was 3.44 ± 0.33 and the protein stability index (treatment: MLN4924 1 uM, 8 h) was 3.48 ± 0.41.
In the case of VKEKGSTLDLSDLEAEKLVMFQRR [SCD], the protein stability index (treatment: DMSO) is reported as 4.06 ± 0.31 and the protein stability index (treatment: MLN4924 1 uM, 8 h) is reported as 3.97 ± 0.31.
For VKLMMSTLPKSLSLPTTAPSNSSS [MYBL2], the protein stability index (treatment: DMSO) was 3.24 ± 0.18 and the protein stability index (treatment: MLN4924 1 uM, 8 h) was 3.33 ± 0.24.
For VKQEIAEMRIPALNAYMKSLLSLP [NCF4], the protein stability index (treatment: DMSO) was 2.27 ± 0.34 and the protein stability index (treatment: MLN4924 1 uM, 8 h) was 2.36 ± 0.28.
Work on VLAAKERRCGELKRKLGLTALVGL [TPD52L3] yielded a protein stability index (treatment: DMSO) of 2.44 ± 0.24 and a protein stability index (treatment: MLN4924 1 uM, 8 h) of 2.07 ± 0.23.
VLKRQRKRRVALSPVTENSTSLSF [MYBL2] showed a protein stability index (treatment: DMSO) of 3.59 ± 0.22 and a protein stability index (treatment: MLN4924 1 uM, 8 h) of 3.5 ± 0.14.
Sequence VLQDGCVFEKAGVSISVVHGNLSE [CPOX] has a protein stability index (treatment: DMSO) of 3.21 ± 0.32 and a protein stability index (treatment: MLN4924 1 uM, 8 h) of 3.05 ± 0.53.
With VLSSEQEFQMFPKSRLSSVSVTYC [ETS2] the protein stability index (treatment: DMSO) was 2.21 ± 0.28 and the protein stability index (treatment: MLN4924 1 uM, 8 h) was 2.23 ± 0.3.
In the case of VMLGAGGVGKSAMTMQFISHRFPE [RIT1], the protein stability index (treatment: DMSO) is reported as 2.33 ± 0.34 and the protein stability index (treatment: MLN4924 1 uM, 8 h) is reported as 2.12 ± 0.34.
With VMYRIGCLRDDVVFFIYLYQRWIY [CLPTM1] the protein stability index (treatment: DMSO) was 2.93 ± 0.66 and the protein stability index (treatment: MLN4924 1 uM, 8 h) was 2.71 ± 0.32.
Work on VNPTGNLPMWSNQTWNNSTWSNQT [NANOGP8] yielded a protein stability index (treatment: DMSO) of 2.75 ± 0.2 and a protein stability index (treatment: MLN4924 1 uM, 8 h) of 2.98 ± 0.35.
In the case of VPGGAGPCATVSVFPGARLLTIGD [CARM1], the protein stability index (treatment: DMSO) is reported as 2.73 ± 0.43 and the protein stability index (treatment: MLN4924 1 uM, 8 h) is reported as 2.53 ± 0.48.
Sequence VPQPRPPGARTRAGAARVARWRRL [FBXO33] has a protein stability index (treatment: DMSO) of 4.39 ± 0.42 and a protein stability index (treatment: MLN4924 1 uM, 8 h) of 4.76 ± 0.21.
In the case of VPSEWLSSVYKQQWFAMLRAEQDS [GMCL1], the protein stability index (treatment: DMSO) is reported as 2.47 ± 0.19 and the protein stability index (treatment: MLN4924 1 uM, 8 h) is reported as 2.43 ± 0.17.
VQEDLEAEFQSLFSLLEELKEGML [FSD1] gave a protein stability index (treatment: DMSO) of 2.99 ± 0.57 and a protein stability index (treatment: MLN4924 1 uM, 8 h) of 3.01 ± 0.53.
Sequence VQSIELQRPRFITSGGSNIIYVAS [VPS39] has a protein stability index (treatment: DMSO) of 2.35 ± 0.44 and a protein stability index (treatment: MLN4924 1 uM, 8 h) of 2 ± 0.22.
VRIQNPSLRENDFIEIELDRQELT [ANKRD40] gave a protein stability index (treatment: DMSO) of 3.04 ± 0.41 and a protein stability index (treatment: MLN4924 1 uM, 8 h) of 3.26 ± 0.44.
Work on VRQPILQYRWDMMHRLGEPQARMR [BEX1] yielded a protein stability index (treatment: DMSO) of 2.95 ± 0.21 and a protein stability index (treatment: MLN4924 1 uM, 8 h) of 3.22 ± 0.29.
Work on VRRGHSHLAPSEAKAADSPTRNDL yielded a protein stability index (treatment: DMSO) of 4.96 ± 0.16 and a protein stability index (treatment: MLN4924 1 uM, 8 h) of 4.9 ± 0.2.
With VSISISGSSRPCLDFLQEVTRQPR [ASB7] the protein stability index (treatment: DMSO) was 1.93 ± 0.48 and the protein stability index (treatment: MLN4924 1 uM, 8 h) was 2.05 ± 0.3.
VSMEIFFKAWLHNSGTDQEQIHLL [M1AP] gave a protein stability index (treatment: DMSO) of 2.41 ± 0.52 and a protein stability index (treatment: MLN4924 1 uM, 8 h) of 2.21 ± 0.27.
With VSVESQQVQQVEVEATVKPELTAA [PRPH] the protein stability index (treatment: DMSO) was 5.23 ± 0.089 and the protein stability index (treatment: MLN4924 1 uM, 8 h) was 5.25 ± 0.12.
Sequence VTATDQKVEKMLISSIKEKYPSHS [IMPA1] has a protein stability index (treatment: DMSO) of 3.94 ± 0.14 and a protein stability index (treatment: MLN4924 1 uM, 8 h) of 4.27 ± 0.23.
In the case of VTGPDNGVRESETEQGFGEDLEDL [NFE2L1], the protein stability index (treatment: DMSO) is reported as 5.79 ± 0.27 and the protein stability index (treatment: MLN4924 1 uM, 8 h) is reported as 5.62 ± 0.35.
For VTIKHVACGDFFTACLTDRGIIMT [NEK8], the protein stability index (treatment: DMSO) was 2.96 ± 0.5 and the protein stability index (treatment: MLN4924 1 uM, 8 h) was 2.63 ± 0.35.
VTLALLGSYTVQSELGDYDPDECG [EPB41L3] gave a protein stability index (treatment: DMSO) of 2.46 ± 0.4 and a protein stability index (treatment: MLN4924 1 uM, 8 h) of 2.62 ± 0.27.
Sequence VVAVHVVLALFVYVAWNEGSRQWR [VMA21] has a protein stability index (treatment: DMSO) of 2.84 ± 0.3 and a protein stability index (treatment: MLN4924 1 uM, 8 h) of 2.88 ± 0.16.
VWKHGITPPLKNVRKKRFRKTQKK [TAF7L] gave a protein stability index (treatment: DMSO) of 3.46 ± 0.16 and a protein stability index (treatment: MLN4924 1 uM, 8 h) of 3.86 ± 0.17.
VYSDLCEAAEAVRPEERKTCRNPA [ADAMTSL2] gave a protein stability index (treatment: DMSO) of 4.83 ± 0.21 and a protein stability index (treatment: MLN4924 1 uM, 8 h) of 4.5 ± 0.49.

Source: the supplement of paper PMC10567573
